Measured values taken from paper PMC10245814 (bioRxiv, 2023).

Target: T1, BabA^AD (residues 25 to 460 of mature BabA) (Helicobacter pylori 17875/Leb (CCUG …))
T1 chain: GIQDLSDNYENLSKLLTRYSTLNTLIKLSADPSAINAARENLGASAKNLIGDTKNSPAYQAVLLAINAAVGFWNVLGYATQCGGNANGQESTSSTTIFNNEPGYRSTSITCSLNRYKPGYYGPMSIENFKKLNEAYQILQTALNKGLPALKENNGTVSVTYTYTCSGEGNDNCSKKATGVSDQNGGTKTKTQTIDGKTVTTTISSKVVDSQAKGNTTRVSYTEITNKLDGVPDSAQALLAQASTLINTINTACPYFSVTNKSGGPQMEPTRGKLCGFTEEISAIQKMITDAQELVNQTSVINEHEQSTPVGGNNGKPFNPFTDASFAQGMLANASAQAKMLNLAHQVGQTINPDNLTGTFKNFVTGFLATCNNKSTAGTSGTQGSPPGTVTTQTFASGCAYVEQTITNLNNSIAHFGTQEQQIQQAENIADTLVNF
Assay: crystal structure

binding result: binds
B1: nanobody Nb-ER19 (VHH)
VHH: QVQLQESGGGLVQPGGSLRLSCAASGSIFSGNVMGWYRQAPGKLREWVAAITPQGVPNYADSVKGRFTISRDNAKNMLYLQMSSLKPEDTALYYCNRLPNYRSWGQGTQVTVSS
